Laboratory results taken from patent US20260130997A1 (BEAM THERAPEUTICS, published 2026).
Positions count from the first letter of the chain named.

Legend:
[1] = biological target: T1, purified CD45 protein E259G (Homo sapiens, UniProt P08575 225-394, limits assumed); test: biosensor; 100 nM mAb030-9 captured with Anti-Human IgG Fc Capture (AHC), 300 nM purified CD45 protein
T1 construct: Purified CD45 variant of the biosensor assay
T1 chain: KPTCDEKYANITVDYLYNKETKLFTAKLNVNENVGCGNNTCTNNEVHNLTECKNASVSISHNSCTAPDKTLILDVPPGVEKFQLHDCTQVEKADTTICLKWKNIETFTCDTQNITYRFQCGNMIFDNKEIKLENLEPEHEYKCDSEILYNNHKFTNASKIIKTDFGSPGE
Procedure: (§1) 300 nM of purified CD45 protein was contacted with the immobilized antibody. At 300 s the biosensor was placed in buffer without purified CD45 protein.

[2] = biological target: T2, purified CD45 protein N267G (Homo sapiens, UniProt P08575 225-394, limits assumed); test: as above
T2 construct: Purified CD45 variant of the biosensor assay
T2 chain: T1 chain with G35E, N43G
Procedure: as §1

B1: mAb U139AGL030-9 (mAb030-9) (antibody, mouse IgG1, kappa, V domains shown)
VH: EVKLLESGGGLVQPGGSLKLSCAASGFDFSRYWMSWVRQAPGKGLEWIGEINPTSSTINFTPSLKDKVFISRDNAKNTLYLQMSKVRSEDTALYYCARGNYYRYGDAMDYWGQGTSVTVSS
VL: DIALTQSPASLAVSLGQRATISCRASKSVSTSGYSYLHWYQQKPGQPPKLLIYLASNLESGVPARFSGSGSGTDFTLNIHPVEEEDAATYYCQHSRELPFTFGSGTKLEIKR
notes: In the biosensor assay the antibody was captured with Anti-Human IgG Fc Capture (AHC); also called mAb30-9; mAb039-9
response [1]: < 0.05 nm | response [2]: < 0.05 nm
